Patent EP3205670

Key:
hRSV F protein (FTM-NN) [1] = molecular target: T1, hRSV F protein (FTM-NN) (hRSV, UniProt P03420); test: competition, AlphaScreen
hRSV F protein (FTM-NN) [2] = molecular target: T1, hRSV F protein (FTM-NN); test: SPR

T1 sequence (P03420 26-524): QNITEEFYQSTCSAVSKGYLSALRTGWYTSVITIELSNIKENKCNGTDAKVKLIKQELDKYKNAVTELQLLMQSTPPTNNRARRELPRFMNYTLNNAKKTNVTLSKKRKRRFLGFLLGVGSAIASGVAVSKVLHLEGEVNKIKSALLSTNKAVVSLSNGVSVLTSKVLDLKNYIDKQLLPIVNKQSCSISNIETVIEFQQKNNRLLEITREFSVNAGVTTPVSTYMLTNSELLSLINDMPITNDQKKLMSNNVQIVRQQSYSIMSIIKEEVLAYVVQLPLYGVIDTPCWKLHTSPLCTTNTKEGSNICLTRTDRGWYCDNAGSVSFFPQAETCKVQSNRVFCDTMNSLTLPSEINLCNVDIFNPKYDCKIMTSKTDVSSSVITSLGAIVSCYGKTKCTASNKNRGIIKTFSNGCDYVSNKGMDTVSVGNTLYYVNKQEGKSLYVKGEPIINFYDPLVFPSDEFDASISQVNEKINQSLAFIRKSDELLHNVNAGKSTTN

B1: Numax Fab (antibody, V domains shown)
VH: QVTLRESGPALVKPTQTLTLTCTFSGFSLSTAGMSVGWIRQPPGKALEWLADIWWDDKKHYNPSLKDRLTISKDTSKNQVVLKVTNMDPADTATYYCARDMIFNFYFDVWGQGTTVTVSS
VL: DIQMTQSPSTLSASVGDRVTITCSASSRVGYMHWYQQKPGKAPKLLIYDTSKLASGVPSRFSGSGSGTEFTLTISSLQPDDFATYYCFQGSGYPFTFGGGTKVEIK
IC50 (hRSV F protein (FTM-NN) [1]): 0.086 nM

B2: Synagis (antibody, V domains shown)
VH: QVTLRESGPALVKPTQTLTLTCTFSGFSLSTSGMSVGWIRQPPGKALEWLADIWWDDKKDYNPSLKSRLTISKDTSKNQVVLKVTNMDPADTATYYCARSMITNWYFDVWGAGTTVTVSS
VL: DIQMTQSPSTLSASVGDRVTITCKCQLSVGYMHWYQQKPGKAPKLLIYDTSKLASGVPSRFSGSGSGTEFTLTISSLQPDDFATYYCFQGSGYPFTFGGGTKLEIK
Kd (hRSV F protein (FTM-NN) [2]): 0.64 nM

B3: Synagis Fab (antibody, V domains shown)
VH: QVTLRESGPALVKPTQTLTLTCTFSGFSLSTSGMSVGWIRQPPGKALEWLADIWWDDKKDYNPSLKSRLTISKDTSKNQVVLKVTNMDPADTATYYCARSMITNWYFDVWGAGTTVTVSS
VL: DIQMTQSPSTLSASVGDRVTITCKCQLSVGYMHWYQQKPGKAPKLLIYDTSKLASGVPSRFSGSGSGTEFTLTISSLQPDDFATYYCFQGSGYPFTFGGGTKLEIK
IC50 (hRSV F protein (FTM-NN) [1]): 0.597 nM
